Usually Km stands for the concentration of substrate that gives half-maximal velocity. As a reminder, the kcat is the number of substrate molecules converted per active site and unit of time at saturation. By kcat/Km is commonly meant the turnover number divided by the Michaelis constant.

The data set deals with Cc1cn([C@H]2C[C@H](O)[C@@H](COP(=O)(O)OP(=O)(O)O[C@H]3O[C@H](C)[C@@H](O)[C@H](N)[C@H]3O)O2)c(=O)[nH]c1=O. Briefly: purified protein. The following applies: 5 mM N10-formyl-THF, 50 mM HEPPS pH 8.0, hyperbolic.

For QdtF (Providencia alcalifaciens), the Km turned out to be 450 ± 90 µM, the turnover number (kcat) is 2.43 ± 0.31 s⁻¹ and the kcat/Km is 5400 M⁻¹ s⁻¹.

(Values after article PMC5072170.)
